Experimental findings from paper PMC4385471 (Molecular cell, 2015) are described below.

B3: Glutathione S-transferase (GST) tagged ARF1ΔN17 (domain or fragment)
chain: not shown

The target of assay [1] is B3. Put plainly: homologous competition assay.
Assay [2] deals with T1, Maltose Binding Protein (MBP) tagged IpaJΔ50 (Shigella flexneri, UniProt Q54150 51-259).
T1 sequence: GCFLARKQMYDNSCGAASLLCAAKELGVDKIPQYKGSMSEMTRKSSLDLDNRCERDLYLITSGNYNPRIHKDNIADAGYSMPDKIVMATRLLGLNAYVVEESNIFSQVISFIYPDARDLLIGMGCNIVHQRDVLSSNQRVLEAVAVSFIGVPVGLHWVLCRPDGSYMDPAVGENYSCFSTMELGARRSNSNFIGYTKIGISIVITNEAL
Put plainly: pull-down.

In assay [3] the target is T1, Maltose Binding Protein (MBP) tagged …. Put plainly: homologous competition assay.

B1: MBP-GGA1(76-215) (domain or fragment, UniProt Q9UJY5 76-215, looked up)
chain: SCGKRFHDEVGKFRFLNELIKVVSPKYLGSRTSEKVKNKILELLYSWTVGLPEEVKIAEAYQMLKKQGIVKSDPKLPDDTTFPLPPPRPKNVIFEDEEKSKMLARLLKSSHPEDLRAANKLIKEMVQEDQKRMEKISKRV
In turn, B1 yielded a Kd in assay [1] of 1810 nM.

B2: GST-ARF5Δ17 (domain or fragment)
chain: not shown
As for B2, the binding result in assay [2] is “binds”.

As for B3, in assay [3], the Kd is 280 nM.

B4: GST-ARF6Δ13 (domain or fragment, UniProt P62330 14-175, looked up)
chain: MRILMLGLDAAGKTTILYKLKLGQSVTTIPTVGFNVETVTYKNVKFNVWDVGGQDKIRPLWRHYYTGTQGLIFVVDCADRDRIDEARQELHRIINDREMRDAIILIFANKQDLPDAMKPHEIQEKLGLTRIRDRNWYVQPSCATSGDGLYEGLTWLTSNYKS
Regarding B4, the binding result in assay [2] is given as “binds”.
